Experimental data reported in patent US20150086555A1.

Assays:
Settings in all cases: remark: other sources report otherwise
[1] = biological target: recombinant soluble homotrimeric HA of A/Anhui/1/05 (H5N1) (Influenza A virus A/Anhui/1/2005(H5N1)); assay: HA microarray, BCC supernatant
[2] = biological target: recombinant soluble homotrimeric HA of A/California/4/09 (H1N1) (Influenza A virus A/California/04/2009(H1N1)); assay: HA microarray, BCC supernatant
[3] = biological target: recombinant soluble homotrimeric HA of A/Hong Kong/2108/03 (H9N2) (Influenza A virus A/HK/2108/2003(H9N2)); assay: HA microarray, BCC supernatant
[4] = biological target: recombinant soluble homotrimeric HA of A/Indonesia/5/05 (H5N1) (Influenza A virus A/Indonesia/5/2005(H5N1)); assay: HA microarray, BCC supernatant
[5] = biological target: recombinant soluble homotrimeric HA of A/Japan/305/57 (H2N2) (Influenza A virus A/Japan/305/1957(H2N2)); assay: HA microarray, BCC supernatant
[6] = biological target: recombinant soluble homotrimeric HA of A/Netherlands/219/03 (H7N7) (Influenza A virus A/Netherlands/219/03(H7N7)); assay: HA microarray, BCC supernatant
[7] = biological target: recombinant soluble homotrimeric HA of A/Solomon Islands/3/06 (H1N1) (Influenza A virus A/Solomon Islands/3/2006(H1N1)); assay: HA microarray, BCC supernatant
[8] = biological target: recombinant soluble homotrimeric HA of A/Vietnam/1203/04 (H5N1) (Influenza A virus A/VietNam/1203/2004(H5N1)); assay: HA microarray, BCC supernatant
[9] = biological target: recombinant soluble homotrimeric HA of A/Wisconsin/67/05 (H3N2) (Influenza A virus A/Wisconsin/67/2005(H3N2)); assay: HA microarray, BCC supernatant
[10] = biological target: recombinant soluble homotrimeric HA of A/chicken/Vietnam/NCVD-016/08 (H5N1) (Influenza A virus A/chicken/Vietnam/NCVD-016/2008(H5N1)); assay: HA microarray, BCC supernatant
[11] = biological target: recombinant soluble homotrimeric HA of A/duck/Yangzhou/02/05 (H8N4) (Influenza A virus A/duck/Yangzhou/02/2005(H8N4)); assay: HA microarray, BCC supernatant
[12] = biological target: recombinant soluble homotrimeric HA of A/northern shoveler/California/HKWF115/07 (H6) (Influenza A virus A/northern shoveler/California/HKWF115/2007(H6N1)); assay: HA microarray, BCC supernatant
[13] = biological target: recombinant soluble homotrimeric HA of A/swine/Ontario/01911-2/99 (H4N6) (Influenza A virus A/Swine/Ontario/01911-2/99 (H4N6)); assay: HA microarray, BCC supernatant
[14] = biological target: recombinant homotrimeric HA A/Anhui/1/05 H5N1 (Influenza A virus A/Anhui/1/2005(H5N1)); assay: protein microarray, purified IgG, trimeric HA
[15] = biological target: recombinant homotrimeric HA A/California/4/09 H1N1 (Influenza A virus A/California/04/2009(H1N1)); assay: protein microarray, purified IgG, trimeric HA
[16] = biological target: recombinant homotrimeric HA A/Egypt/3300-NAMRU3/08 H5N1 (Influenza A virus A/Egypt/3300-NAMRU3/2008(H5N1)); assay: protein microarray, purified IgG, trimeric HA
[17] = biological target: recombinant homotrimeric HA A/Hong Kong/1073/99 H9N2 (Influenza A virus A/Hong Kong/1073/99 (H9N2)); assay: protein microarray, purified IgG, trimeric HA
[18] = biological target: recombinant homotrimeric HA A/Hong Kong/156/97 H5N1 (Influenza A virus A/Hong Kong/156/97 (H5N1)); assay: protein microarray, purified IgG, trimeric HA
[19] = biological target: recombinant homotrimeric HA A/Hong Kong/2108/03 H9N2 (Influenza A virus A/HK/2108/2003(H9N2)); assay: protein microarray, purified IgG, trimeric HA
[20] = biological target: recombinant homotrimeric HA A/Japan/305/57 H2N2 (Influenza A virus A/Japan/305/1957(H2N2)); assay: protein microarray, purified IgG, trimeric HA
[21] = biological target: recombinant homotrimeric HA A/Netherlands/219/03 H7N7 (Influenza A virus A/Netherlands/219/03(H7N7)); assay: protein microarray, purified IgG, trimeric HA
[22] = biological target: recombinant homotrimeric HA A/Solomon Islands/3/06 H1N1 (Influenza A virus A/Solomon Islands/3/2006(H1N1)); assay: protein microarray, purified IgG, trimeric HA
[23] = biological target: recombinant homotrimeric HA A/South Carolina/1/18 H1N1 (Influenza A virus A/South Carolina/1/18 (H1N1)); assay: protein microarray, purified IgG, trimeric HA
[24] = biological target: recombinant homotrimeric HA A/Vietnam/1203/04 H5N1 (Influenza A virus A/VietNam/1203/2004(H5N1)); assay: protein microarray, purified IgG, trimeric HA
[25] = biological target: recombinant homotrimeric HA A/Wisconsin/67/05 H3N2 (Influenza A virus A/Wisconsin/67/2005(H3N2)); assay: protein microarray, purified IgG, trimeric HA
[26] = biological target: recombinant homotrimeric HA A/chicken/Vietnam/NCVD-016/08 H5N1 (Influenza A virus A/chicken/Vietnam/NCVD-016/2008(H5N1)); assay: protein microarray, purified IgG, trimeric HA
[27] = biological target: recombinant homotrimeric HA A/northern shoveler/California/HKWF115/07 H6N4 (Influenza A virus A/northern shoveler/California/HKWF115/2007(H6N1)); assay: protein microarray, purified IgG, trimeric HA
[28] = biological target: recombinant homotrimeric HA A/Indonesia/5/05 H5N1 (Influenza A virus A/Indonesia/5/2005(H5N1)); assay: protein microarray, purified IgG, trimeric HA

B1: TCN-550 (5096_F06) (antibody, V domains shown)
VH: QVQLQESGPGLVKPSETLSLTCTVSGASINSHYWSWIRQPPGKGLEWIGYVYYSGSTTYNPSLKSRVTLSVDTSKNQFSLNLSSVTAADTAFYYCARHPYDVLTGSGDWFDPWGQGTLVTVSS
VL: SYVLTQAPSVSVAPGQTARITCGGNAIGSKKVHWYQHKAGQAPVLVVYDDTDRPSGIPERFSGSNSWSTATLTINRVEAGDEADYYCQVWDFTIDHVVFGGGTKLTVL
Trimeric HA Binding: RLU [1]: 1210 RLU | Trimeric HA Binding: RLU [2]: 454 RLU | Trimeric HA Binding: RLU [3]: 2280 RLU | Trimeric HA Binding: RLU [4]: 9100 RLU | Trimeric HA Binding: RLU [5]: 201 RLU | Trimeric HA Binding: RLU [6]: 939 RLU | Trimeric HA Binding: RLU [7]: 204 RLU | Trimeric HA Binding: RLU [8]: 277 RLU | Trimeric HA Binding: RLU [9]: 26300 RLU | Trimeric HA Binding: RLU [10]: 361 RLU | Trimeric HA Binding: RLU [11]: 407 RLU | Trimeric HA Binding: RLU [12]: 964 RLU | Trimeric HA Binding: RLU [13]: 195 RLU | Trimeric HA Binding: RLU [14]: 4780 RLU | Trimeric HA Binding: RLU [15]: 238 RLU | Trimeric HA Binding: RLU [16]: 3530 RLU | Trimeric HA Binding: RLU [17]: 413 RLU | Trimeric HA Binding: RLU [18]: 304 RLU | Trimeric HA Binding: RLU [19]: 150 RLU | Trimeric HA Binding: RLU [20]: 499 RLU | Trimeric HA Binding: RLU [21]: 223 RLU | Trimeric HA Binding: RLU [22]: 752 RLU | Trimeric HA Binding: RLU [23]: 104 RLU | Trimeric HA Binding: RLU [24]: 829 RLU | Trimeric HA Binding: RLU [25]: 21300 RLU | Trimeric HA Binding: RLU [26]: 295 RLU | Trimeric HA Binding: RLU [27]: 106 RLU

B2: TCN-543 (5081_G23) (antibody, V domains shown)
VH: QVHLVQSGAEVRKPGDSVKVSCKTSGYTFSTYPVAWVRQVPGQGLEWMGWISTYNGNTNFAQNFQGRVTLTTDTTTNTAYMEVRSLKFDDTAVYYCARVEGSYRDFWNNQNRFDPWGQGTLVTVSS
VL: SYVLTQPPSVSVAPGQTARISCGGSNIGGKSVHWYQQKPGQAPVLVVYDDSGRPSGIPERFSGSNSGDTATLTISRVEAGDEADYFCQVWDNFGGVFGTGTKVTVL
Trimeric HA Binding: RLU [3]: 131 RLU | Trimeric HA Binding: RLU [5]: 197 RLU | Trimeric HA Binding: RLU [6]: 661 RLU | Trimeric HA Binding: RLU [7]: 511 RLU | Trimeric HA Binding: RLU [8]: 488 RLU | Trimeric HA Binding: RLU [9]: 1360 RLU | Trimeric HA Binding: RLU [12]: 2130 RLU | Trimeric HA Binding: RLU [13]: 428 RLU | Trimeric HA Binding: RLU [14]: 601 RLU | Trimeric HA Binding: RLU [16]: 580 RLU | Trimeric HA Binding: RLU [17]: 9160 RLU | Trimeric HA Binding: RLU [18]: 112 RLU | Trimeric HA Binding: RLU [19]: 135 RLU | Trimeric HA Binding: RLU [28]: 91 RLU | Trimeric HA Binding: RLU [20]: 14000 RLU | Trimeric HA Binding: RLU [21]: 162 RLU | Trimeric HA Binding: RLU [22]: 18300 RLU | Trimeric HA Binding: RLU [23]: 259 RLU | Trimeric HA Binding: RLU [24]: 640 RLU | Trimeric HA Binding: RLU [25]: 302 RLU | Trimeric HA Binding: RLU [27]: 101 RLU

B3: TCN-557 (5081_A04) (antibody, V domains shown)
VH: QVQLVQSGAEVKKPGASVKVSCKASGHTFTGYYIHWVRQAPGQGLEWMGWINPDSGATSSAQNFQGRVTMTGDTSSSTAYMELSRLSFDDTAVYYCARVLFTSPFDFWGEGTLVTVSS
VL: QAVVTQEPSLAVSPGGTVTLTCGSSTGAVTRGHYPYWFQQKPGQAPRALIYDSAGNRHSWTPARFSGSLLGGKAALTLSGAQPEDEAEYYCLLSYSGVWVFGGGTKLTVL
Trimeric HA Binding: RLU [1]: 46000 RLU | Trimeric HA Binding: RLU [2]: 17600 RLU | Trimeric HA Binding: RLU [3]: 35300 RLU | Trimeric HA Binding: RLU [4]: 45200 RLU | Trimeric HA Binding: RLU [5]: 43400 RLU | Trimeric HA Binding: RLU [6]: 6780 RLU | Trimeric HA Binding: RLU [7]: 40700 RLU | Trimeric HA Binding: RLU [8]: 47300 RLU | Trimeric HA Binding: RLU [9]: 10200 RLU | Trimeric HA Binding: RLU [10]: 45500 RLU | Trimeric HA Binding: RLU [11]: 50100 RLU | Trimeric HA Binding: RLU [12]: 24400 RLU | Trimeric HA Binding: RLU [13]: 27000 RLU | Trimeric HA Binding: RLU [14]: 22000 RLU | Trimeric HA Binding: RLU [15]: 1170 RLU | Trimeric HA Binding: RLU [16]: 23600 RLU | Trimeric HA Binding: RLU [17]: 440 RLU | Trimeric HA Binding: RLU [18]: 22800 RLU | Trimeric HA Binding: RLU [19]: 7660 RLU | Trimeric HA Binding: RLU [28]: 23300 RLU | Trimeric HA Binding: RLU [20]: 28900 RLU | Trimeric HA Binding: RLU [21]: 7250 RLU | Trimeric HA Binding: RLU [22]: 22700 RLU | Trimeric HA Binding: RLU [23]: 3590 RLU | Trimeric HA Binding: RLU [24]: 25400 RLU | Trimeric HA Binding: RLU [25]: 327 RLU | Trimeric HA Binding: RLU [26]: 25400 RLU | Trimeric HA Binding: RLU [27]: 12600 RLU
